“And” between values parts separate entries of the source, which are not always exact repeats. Identical values can stand only once.

One assay deals with T1, PrP^Sc, pathogenic prion protein in brain homogenate of RML PrP^Sc+ Balb-c mice (mouse), P04925. Briefly: bead pull-down from PrP^Sc+ mouse brain homogenate; ELISA. (An ELISA detects its analyte on a solid surface through an enzyme-linked reagent.)
T1 sequence (P04925 23-230 limits assumed): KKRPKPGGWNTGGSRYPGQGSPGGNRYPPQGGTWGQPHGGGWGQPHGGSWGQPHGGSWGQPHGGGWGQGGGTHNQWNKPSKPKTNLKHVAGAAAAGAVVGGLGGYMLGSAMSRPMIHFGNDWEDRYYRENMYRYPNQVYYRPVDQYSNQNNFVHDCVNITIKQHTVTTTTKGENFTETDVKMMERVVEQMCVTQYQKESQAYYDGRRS
KKRPKGGG (modifications not checked) [Peptide reagent SEQ ID NO:122]: the ELISA A405nm came to 0.503 A405nm.

On to KKRPKGGG (modifications not checked) [Peptide reagent SEQ ID NO:121], for which the ELISA A405nm stood at 0.509 A405nm.

KKRPKGGG (modifications not checked) [Peptide reagent SEQ ID NO:119] had an ELISA A405nm of 0.61 A405nm.

As to KKRPKGGG (modifications not checked) [Peptide reagent SEQ ID NO:120], the ELISA A405nm was 0.631 A405nm.

Another assay addresses T1, PrP^Sc, pathogenic prion protein in …. The assay is described as follows: bead pull-down, NaCl dissociation of bound PrP^Sc; Western blot. In general terms: Immunoblotting shows a protein as a band on a membrane.
For the molecule GGGKKKKKKKK (modifications not checked) [Peptide reagent SEQ ID NO:85], the recovery rate following 1.0 M NaCl elution was 40% and 50%.

Take GGGKKRPKPGG (modifications not checked) [Peptide reagent SEQ ID NO:68]: the recovery rate following 1.0 M NaCl elution is 40% and 50%.

These data come from patent publication US20090099343A1.
